Measurements as given in PMC9687869, “Redox Regulation of Signaling Complex between Caveolin-1 and Neuronal Calcium Sensor Recoverin” (Biomolecules, 2022).
Changes are numbered by the printed parent chain. Names may count otherwise.

T1: recombinant myristoylated recoverin, reduced monomer (Rec) (UniProt P21457 1-202, N-terminal myristoyl group (myristoylation rate more than 95%))
T1 construct: recoverin, photoreceptor neuronal calcium sensor; also called intact recoverin; wild-type recoverin
T1 sequence (looked up): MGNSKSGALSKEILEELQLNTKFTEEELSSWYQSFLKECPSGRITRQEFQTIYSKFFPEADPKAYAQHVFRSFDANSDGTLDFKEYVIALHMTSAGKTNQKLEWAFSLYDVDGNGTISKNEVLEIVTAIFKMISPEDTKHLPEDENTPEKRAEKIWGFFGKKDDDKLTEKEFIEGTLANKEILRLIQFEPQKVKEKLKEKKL

B1: recoverin C39D mutant (Rec-C39D) (natural protein, UniProt P21457 1-202, looked up)
chain: T1 sequence (looked up) with C39D
modifications: N-terminal myristoyl group (myristoylation rate more than 95%)
notes: recoverin with C39D, which mimics oxidation of cysteine-39 to a sulfenic/sulfinic/sulfonic group; also called thiol oxidation mimicking mutant; oxidized monomer mimic
B2: N-terminal fragment of caveolin-1 M1-R101 with N-terminal His6-tag (Cav) (domain or fragment, UniProt Q03135 1-101, looked up)
chain: MSGGKYVDSEGHLYTVPIREQGNIYKPNNKAMADELSEKQVYDAHTKEIDLVNRDPKHLNDDVVKIDFEDVIAEPEGTHSFDGIWKASFTTFTVTKYWFYR
notes: caveolin-1, N-terminal domain and oligomerization domain, residues M1-R101; Forms homogeneous oligomers in solution by DLS; the number of copies was not measured; It names pET-22b and an N-terminal His6-tag; also called Cav (1-101 aa) fragment; caveolin-1 fragment; source: E. coli BL21 Star (DE3), solubilised in guanidine hydrochloride, dialysed, purified (Ni-NTA)
B3: N-terminally tagged caveolin-1 fragment M1-R101 with Y14E substitution (CavE) (domain or fragment, UniProt Q03135 1-101, looked up)
chain: B2 chain with Y14E
notes: caveolin-1, residues M1-R101 with Y14E, which mimics phosphorylation at Y14; built on Cav; Forms larger oligomeric particles than Cav by DLS; also called caveolin-1 mutant Y14E; source: E. coli BL21 Star (DE3), solubilised in guanidine hydrochloride, dialysed, purified (Ni-NTA)
B4: disulfide dimer of recoverin (dRec) (natural protein)
chain: GNSKSGALSKEILEELQLNTKFTEEELSSWYQSFLKECPSGRITRQEFQTIYSKFFPEADPKAYAQHVFRSFDANSDGTLDFKEYVIALHMTSAGKTNQKLEWAFSLYDVDGNGTISKNEVLEIVTAIFKMISPEDTKHLPEDENTPEKRAEKIWGFFGKKDDDKLTEKEFIEGTLANKEILRLIQFEPQKVKEKLKEKKL
modifications: N-terminal myristoyl group; disulfide between the cysteine-39 residues of the two chains

How the values were obtained:
Conditions in all cases: both partners purified
[1] = target: B2; test: pull-down; Cav or CavE covalently attached to BrCN-activated Sepharose CL-4B; 50 ug recoverin form; 20 mM Tris-HCl pH 7.5, 100 mM NaCl, 2 mM MgCl2, 2 mM EGTA (calcium-free); 30 min at room temperature; bound protein analysed by SDS-PAGE
[2] = target: B4; test: SPR; Cav or CavE immobilised by amine coupling (ProteOn GLH chip); analyte 2.5-30 uM recoverin form; 10 mM HEPES pH 7.4, 150 mM NaCl, 2 mM DTT (none for dRec), 0.05% TWEEN 20, calcium-free (1 mM EDTA in the methods, 2 mM EGTA in Table 2); 25 C; heterogeneous ligand model
[3] = target: T1, recombinant myristoylated recoverin, …; test: as above
[4] = target: B1; test: as above
[5] = target: B1; test: SPR; Cav or CavE immobilised by amine coupling (ProteOn GLH chip); analyte 2.5-30 uM recoverin form; 10 mM HEPES pH 7.4, 150 mM NaCl, 2 mM DTT (none for dRec), 0.05% TWEEN 20, with calcium (1 mM CaCl2 in the methods, 2 mM Ca2+ in Table 2); 25 C; heterogeneous ligand model

fold increase of the interaction against Rec (pull-down) [1] [fold] | Kd [2] [nM] | koff [2] [s⁻¹] | Kd [3] [nM] | koff [3] [s⁻¹] | Kd [4] [nM] | koff [4] [s⁻¹] | Kd [5] [nM] | koff [5] [s⁻¹] | Binder
2 to 3 |  |  |  |  |  |  |  |  | B1
 | 48.6 ± 1.1 | 2.44e-05 | 490 ± 160 | 0.000105 | 140 ± 44 | 0.000117 | 376 ± 173 | 0.000186 | B2
 | 218 ± 87 | 8.08e-05 | 1110 ± 66 | 8.81e-05 | 329 ± 145 | 0.000172 | 629 ± 257 | 0.000202 | B3
2 to 3 |  |  |  |  |  |  |  |  | B4
